The data set concerns CsrA-His6. As to the kind of experiment: EMSA.

Results on one substance are retold here after publication PMC10294631.

Consider hmsE RNA 104 nt (GGA2 and GGA3), for which the equilibrium dissociation constant (Kd) – broadly, the free concentration of one partner at which half of the binding sites on the other are occupied at equilibrium, for simple one-to-one binding – amounted to 0.138 µM.
